Experimental data taken from publication PMC4748816 (RNA, 2016).

Legend:
[1] = biological target: His-tagged GFP-dmDcr1 (Drosophila) (UniProt Q9VCU9); assay: fluorescence cross-correlation spectroscopy
[2] = biological target: GST-Loqs-3 (minimal linker plus dsRBD3) (Drosophila) (UniProt Q9VJY9); assay: pull-down
[3] = biological target: Alexa Fluor 647-labeled Loqs-3 (Loqs-3^AF647), single-labeled dimer fraction (Drosophila) (UniProt Q9VJY9); assay: SEC
His-tagged GFP-dmDcr1 = His-tagged GFP-dmDcr1 (Drosophila, UniProt Q9VCU9 1-2249); assay: fluorescence cross-correlation spectroscopy
SEC = biological target: the molecule itself; assay: SEC

Sequence of His-tagged GFP-dmDcr1 (Q9VCU9 whole entry): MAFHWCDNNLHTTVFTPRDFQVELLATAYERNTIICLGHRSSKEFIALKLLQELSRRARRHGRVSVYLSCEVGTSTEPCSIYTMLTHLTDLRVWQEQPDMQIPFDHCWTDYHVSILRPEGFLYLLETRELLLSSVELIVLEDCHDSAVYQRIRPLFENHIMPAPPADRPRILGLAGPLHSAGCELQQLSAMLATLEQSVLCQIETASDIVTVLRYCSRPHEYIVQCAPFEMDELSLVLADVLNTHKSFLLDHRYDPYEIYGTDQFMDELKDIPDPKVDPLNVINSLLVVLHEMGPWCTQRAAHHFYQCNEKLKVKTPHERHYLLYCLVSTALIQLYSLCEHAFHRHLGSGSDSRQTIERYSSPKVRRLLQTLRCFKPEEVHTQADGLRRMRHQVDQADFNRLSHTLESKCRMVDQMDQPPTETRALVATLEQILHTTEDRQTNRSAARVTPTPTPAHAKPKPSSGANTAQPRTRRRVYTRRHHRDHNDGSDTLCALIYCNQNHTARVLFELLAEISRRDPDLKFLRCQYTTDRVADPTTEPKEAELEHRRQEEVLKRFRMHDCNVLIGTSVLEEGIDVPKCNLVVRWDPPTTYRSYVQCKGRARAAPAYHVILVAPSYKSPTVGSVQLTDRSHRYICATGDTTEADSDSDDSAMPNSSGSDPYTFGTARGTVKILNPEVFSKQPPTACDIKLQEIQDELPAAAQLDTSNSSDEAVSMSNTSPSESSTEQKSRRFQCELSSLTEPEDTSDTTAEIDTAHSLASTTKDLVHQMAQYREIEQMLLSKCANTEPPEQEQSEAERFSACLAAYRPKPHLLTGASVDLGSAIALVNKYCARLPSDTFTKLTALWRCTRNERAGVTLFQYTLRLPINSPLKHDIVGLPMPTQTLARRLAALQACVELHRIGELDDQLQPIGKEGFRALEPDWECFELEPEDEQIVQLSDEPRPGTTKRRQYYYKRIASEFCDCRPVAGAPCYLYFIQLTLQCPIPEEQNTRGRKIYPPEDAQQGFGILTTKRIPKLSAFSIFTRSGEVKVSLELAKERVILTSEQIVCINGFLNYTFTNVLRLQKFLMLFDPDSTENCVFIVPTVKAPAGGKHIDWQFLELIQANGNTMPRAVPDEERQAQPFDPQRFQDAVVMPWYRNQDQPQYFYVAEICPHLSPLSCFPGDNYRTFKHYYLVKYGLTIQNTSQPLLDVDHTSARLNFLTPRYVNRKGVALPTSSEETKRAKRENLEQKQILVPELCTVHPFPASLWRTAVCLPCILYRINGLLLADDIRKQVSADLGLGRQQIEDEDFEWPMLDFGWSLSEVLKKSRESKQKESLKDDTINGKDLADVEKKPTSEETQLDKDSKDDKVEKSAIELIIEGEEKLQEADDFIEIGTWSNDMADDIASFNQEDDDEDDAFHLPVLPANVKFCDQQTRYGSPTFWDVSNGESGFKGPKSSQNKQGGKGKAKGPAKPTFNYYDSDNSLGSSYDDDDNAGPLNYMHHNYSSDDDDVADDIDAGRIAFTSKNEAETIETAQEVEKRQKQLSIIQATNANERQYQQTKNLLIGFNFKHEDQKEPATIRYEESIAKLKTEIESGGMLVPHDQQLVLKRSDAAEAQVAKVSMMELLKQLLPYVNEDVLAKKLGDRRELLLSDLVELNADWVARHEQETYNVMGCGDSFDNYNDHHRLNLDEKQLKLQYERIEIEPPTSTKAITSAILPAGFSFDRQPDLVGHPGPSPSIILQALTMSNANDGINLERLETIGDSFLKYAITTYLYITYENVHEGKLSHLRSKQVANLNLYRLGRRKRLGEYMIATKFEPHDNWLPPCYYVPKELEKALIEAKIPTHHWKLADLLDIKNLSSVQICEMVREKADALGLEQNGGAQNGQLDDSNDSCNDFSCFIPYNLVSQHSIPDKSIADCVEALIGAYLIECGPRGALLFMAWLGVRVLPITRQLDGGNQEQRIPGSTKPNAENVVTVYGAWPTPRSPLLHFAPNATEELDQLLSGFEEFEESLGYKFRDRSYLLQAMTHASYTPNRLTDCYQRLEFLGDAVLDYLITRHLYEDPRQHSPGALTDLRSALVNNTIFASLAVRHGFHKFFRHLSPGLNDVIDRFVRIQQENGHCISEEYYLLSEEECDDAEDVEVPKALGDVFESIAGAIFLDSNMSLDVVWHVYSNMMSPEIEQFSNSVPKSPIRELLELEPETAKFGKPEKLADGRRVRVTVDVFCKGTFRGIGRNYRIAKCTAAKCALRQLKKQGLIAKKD
Sequence of His-tagged GFP-dmDcr1 (Drosophila) (Q9VCU9 whole entry): as above

| Molecule | IC50 (His-tagged GFP-dmDcr1) | Ki (His-tagged GFP-dmDcr1) | other results |
| --- | --- | --- | --- |
| Alexa Fluor 647-labeled dsRBD3 (dsRDB3^AF647) (from UniProt Q9VJY9 392-463) (domain or fragment) | – | – | Kd [1]: 192 nM |
| His-tagged dmDcr1 (Drosophila Dicer1), Q9VCU9 1-2249 | – | – | fold binding against dsRBD3 alone [2]: 10 fold |
| Alexa Fluor 647-labeled Loqs-3 (Loqs-3^AF647), single-labeled dimer fraction (from UniProt Q9VJY9 368-463) (domain or fragment) | – | – | stoichiometry N [3]: 2 |
| Loqs dsRBD3, unlabeled, purified (domain or fragment, Drosophila) IDYIKLLGEIATENQFEVTYVDIEEKTFSGQFQCLVQLSTLPVGVCHGSGPTAADAQRHAAQNALEYLKIMT | 104 nM | 43.6 nM | – |
| Loqs-3, unlabeled, purified (domain or fragment, Drosophila, UniProt Q9VJY9 368-463, looked up) HKTLKNATGKKLLKLQKTCLKNNKIDYIKLLGEIATENQFEVTYVDIEEKTFSGQFQCLVQLSTLPVGVCHGSGPTAADAQRHAAQNALEYLKIMT | 9.3 nM | 3.6 nM | – |
| Loqs-3 K460E (size-exclusion chromatography) (domain or fragment, Drosophila, UniProt Q9VJY9 368-463, looked up) HKTLKNATGKKLLKLQKTCLKNNKIDYIKLLGEIATENQFEVTYVDIEEKTFSGQFQCLVQLSTLPVGVCHGSGPTAADAQRHAAQNALEYLEIMT | – | – | binding result (SEC): binds |
